Patent US20230213525A1, “DETECTING MICROBIAL INFECTION IN WOUNDS” (QUALIZYME DIAGNOSTICS GMBH & CO KG, priority 2016, published 2023)

Biological target: T1, Elastase (Homo sapiens, UniProt P08246)
T1 sequence (P08246 30-267): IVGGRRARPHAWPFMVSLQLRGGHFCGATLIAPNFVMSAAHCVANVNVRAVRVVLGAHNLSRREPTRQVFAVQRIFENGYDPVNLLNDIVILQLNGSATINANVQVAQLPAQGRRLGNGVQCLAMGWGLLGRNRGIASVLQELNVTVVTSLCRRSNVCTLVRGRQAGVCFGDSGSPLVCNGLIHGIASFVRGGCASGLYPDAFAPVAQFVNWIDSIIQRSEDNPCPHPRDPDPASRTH
Test: Reaction of Trx-Ela-Sub 1-RBB with Elastase
Assay type: biochemical
Conditions: incubated with and without Elastase containing buffer; FIG. 10
Description: The stained and purified peptide construct was applied on a cellulose surface and dried at 37° C. for 2 h. Unbound Trx-Ela-Sub 1-RBB was removed with H20. The stripes with the applied Elastase substrate were incubated with and without Elastase containing buffer, respectively.

dye release from cellulose stripes: Elastase responsive dye release
B1: Trx-Ela-Sub 1-RBB: purified Trx-Ela-Sub1 fusion protein stained with vinyl sulfone dye remazol brilliant blue R (conjugate)
chain: MSDKIIHLTDDSFDTDVLKADGAILVDFWAEWCGPCKMIAPILDEIADEYQGKLTVAKLNIDQNPGTAPKYGIRGIPTLLLFKNGEVAATKVGALSKGQLKEFLDALAGSGSGHMHHHHHHSSGLVPRGSGMKETAAAKFERQHMDSPDLGTDDDDKAMGGSCGGGGSAAPVGGGGSAAPVGGGGSPPGGNRGTTTTRRPATTTGSSPGPTQSHYGQCGGIGYSGPTVCASGTTCQVLNPYYSQCLLEHHHHHH
